This is an account of results in article PMC6378967.

The target of assay [1] is WT human renin (human) (UniProt P00797).
For assay [2], the target named is biotinylated renin D226A mutant (human). Put plainly: BLI; FortéBio Octet Red96; biotinylated renin D226A (2.5 μg/ml) loaded on streptavidin biosensors; 2-fold dilutions of AGT in 10 mM Tris, pH 7.4, 0.15 M NaCl, 1% BSA; 1:1 binding model, global fit; KD = koff/kon; three independent assays. On the technique in general: BLI is a label-free optical method that tracks binding on a fibre tip over time.

Assay [3] addresses WT human renin (human) (UniProt P00797). The source holds these as a separate data set.

Sequence of WT human renin (human) (P00797 67-406): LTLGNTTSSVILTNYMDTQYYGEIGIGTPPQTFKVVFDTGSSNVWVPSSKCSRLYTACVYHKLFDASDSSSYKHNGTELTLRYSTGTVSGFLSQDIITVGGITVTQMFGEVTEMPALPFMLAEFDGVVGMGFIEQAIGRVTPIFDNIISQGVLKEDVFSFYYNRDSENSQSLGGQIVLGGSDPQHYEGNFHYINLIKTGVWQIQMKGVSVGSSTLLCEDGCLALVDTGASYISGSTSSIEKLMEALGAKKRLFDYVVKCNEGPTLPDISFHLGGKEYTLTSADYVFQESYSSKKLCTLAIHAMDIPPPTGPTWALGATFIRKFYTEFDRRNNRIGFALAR

For “fully glycosylated WT human angiotensinogen (AGT) (natural protein)”, in the assay with WT human renin (human) [1], the Km of cleavage of AGT by WT human renin (released Ang I quantified by immunoassay) was 0.76 µM, the kcat of cleavage of AGT by WT human renin (released Ang I quantified by immunoassay) came out at 0.2 s⁻¹ and the kcat/Km of cleavage of AGT by WT human renin (released Ang I quantified by immunoassay) was 250000 M⁻¹ s⁻¹.
As a reminder, the Kd is the concentration at which binding is half-saturated. A high value points to lower affinity. The koff is the rate constant with which the complex falls apart. High values mean a short-lived complex, low ones a long-lived complex. Broadly, the kon is the second-order rate constant of association. A lower kon goes with slow association. Turning to “human AGT N14Q variant (natural protein)”, in assay [2], the Kd came out at 5.8 nM, the koff came out at 0.000209 s⁻¹ and the kon amounted to 36100 M⁻¹ s⁻¹. Moreover, in the assay with WT human renin (human) [1], the Km of cleavage of AGT by WT human renin (released Ang I quantified by immunoassay) worked out at 0.56 µM, the kcat of cleavage of AGT by WT human renin (released Ang I quantified by immunoassay) turned out to be 0.35 s⁻¹ and the kcat/Km of cleavage of AGT by WT human renin (released Ang I quantified by immunoassay) stood at 640000 M⁻¹ s⁻¹.
With human AGT N331D (natural protein), in assay [2], the Kd came out at 91.5 nM, the koff was 0.000296 s⁻¹ and the kon stood at 3210 M⁻¹ s⁻¹. In addition, in the assay with WT human renin (human) [1], the Km of cleavage of AGT by WT human renin (released Ang I quantified by immunoassay) was found to be 2.56 µM, the kcat of cleavage of AGT by WT human renin (released Ang I quantified by immunoassay) stood at 0.14 s⁻¹ and the kcat/Km of cleavage of AGT by WT human renin (released Ang I quantified by immunoassay) amounted to 50000 M⁻¹ s⁻¹.
In assay [2], human AGT N334T (natural protein) came in with a Kd of 27.9 nM, a koff of 0.000418 s⁻¹ and a kon of 15000 M⁻¹ s⁻¹. Moreover, in the assay with WT human renin (human) [1], the Km of cleavage of AGT by WT human renin (released Ang I quantified by immunoassay) is 0.76 µM, the kcat of cleavage of AGT by WT human renin (released Ang I quantified by immunoassay) stood at 0.16 s⁻¹ and the kcat/Km of cleavage of AGT by WT human renin (released Ang I quantified by immunoassay) turned out to be 220000 M⁻¹ s⁻¹.
In assay [2], human AGT R83H (natural protein) registered an equilibrium dissociation constant (Kd) of 44.6 nM, a koff of 0.000606 s⁻¹ and a kon of 14000 M⁻¹ s⁻¹. Further, in the assay with WT human renin (human) [1], the Km of cleavage of AGT by WT human renin (released Ang I quantified by immunoassay) was 1.42 µM, the kcat of cleavage of AGT by WT human renin (released Ang I quantified by immunoassay) came to 0.2 s⁻¹ and the kcat/Km of cleavage of AGT by WT human renin (released Ang I quantified by immunoassay) came to 140000 M⁻¹ s⁻¹.
For “human AGT quadruple glycosylation mutant N14Q/N137Q/N271Q/N295Q (natural protein)”, in assay [2], the Kd came to 1.2 nM, the koff was 8.61e-05 s⁻¹ and the kon worked out at 74600 M⁻¹ s⁻¹. For the same substance, in the assay with WT human renin (human) [1], the Km of cleavage of AGT by WT human renin (released Ang I quantified by immunoassay) came to 0.67 µM, the kcat of cleavage of AGT by WT human renin (released Ang I quantified by immunoassay) came to 0.44 s⁻¹ and the kcat/Km of cleavage of AGT by WT human renin (released Ang I quantified by immunoassay) stood at 650000 M⁻¹ s⁻¹.
Consider “spent AGT (human AGT without the N-terminal 10-residue angiotensin I peptide) (domain or fragment)”, for which the inhibition of renin cleavage of an AGT fusion protein (intact AGT 1.1 μM) by increasing amounts of spent AGT (product inhibition; blocks renin with intact AGT) with WT human renin (human) [3] was found to be 0.65 µM.
